Test results taken from PMC7094256 (Febs Letters, 2005).

B1: GST-tagged human heterogeneous nuclear ribonucleoprotein A1 (natural protein)
chain: MSKSESPKEPEQLRKLFIGGLSFETTDESLRSHFEQWGTLTDCVVMRDPNTKRSRGFGFVTYATVEEVDAAMNARPHKVDGRVVEPKRAVSREDSQRPGAHLTVKKIFVGGIKEDTEEHHLRDYFEQYGKIEVIEIMTDRGSGKKRGFAFVTFDDHDSVDKIVIQKYHTVNGHNCEVRKALSKQEMASASSSQRGRSGSGNFGGGRGGGFGGNDNFGRGGNFSGRGGFGGSRGGGGYGGSGDGYNGFGNDGSNFGGGGSYNDFGNYNNQSSNFGPMKGGNFGGRSSGPYGGGGQYFAKPRNQGGYGGSSSSSSYGSGRRF

How the values were obtained:
[1] = biological target: B1; experiment: SPR
[2] = biological target: His-tagged nucleocapsid protein of SARS coronavirus (SARS coronavirus, UniProt P59595 1-422); experiment: SPR
His-tagged nucleocapsid protein of SARS coronavirus, sequence (P59595 whole entry): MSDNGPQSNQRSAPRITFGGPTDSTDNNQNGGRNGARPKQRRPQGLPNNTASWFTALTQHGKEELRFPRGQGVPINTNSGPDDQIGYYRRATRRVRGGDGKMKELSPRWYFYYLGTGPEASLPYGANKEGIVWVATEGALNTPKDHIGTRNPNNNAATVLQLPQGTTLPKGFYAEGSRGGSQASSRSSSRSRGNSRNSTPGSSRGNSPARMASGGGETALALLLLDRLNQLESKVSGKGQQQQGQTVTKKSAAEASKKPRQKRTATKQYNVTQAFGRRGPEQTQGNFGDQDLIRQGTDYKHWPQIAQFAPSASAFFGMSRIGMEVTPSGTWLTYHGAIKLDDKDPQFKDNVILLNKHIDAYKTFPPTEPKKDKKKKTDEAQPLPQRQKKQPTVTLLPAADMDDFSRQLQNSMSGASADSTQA

Binder | Kd [1] [µM] | Kd [2] [µM] | koff [2] [s⁻¹] | kon [2] [M⁻¹ s⁻¹]
ASSRSSSRSRGNSRN [synthesized peptide ASSRSSSRSRGNSRN (aa 183–197 of SARS_N)] | 148 ± 12 |  |  | 
B1 |  | 0.35 ± 0.02 | 0.00206 | 5830
